Reference: paper PMC6549176, “SAGA DUBm-mediated surveillance regulates prompt export of stress-inducible transcripts for proteostasis” (Nature Communications, 2019)

Biological target: T1, recombinant Sgf73p (MBP-Sgf73p) (S. cerevisiae, UniProt P53165 1-657)
T1 construct: Sgf73p of the SAGA DUBm, S. cerevisiae; source: recombinant
T1 sequence (looked up): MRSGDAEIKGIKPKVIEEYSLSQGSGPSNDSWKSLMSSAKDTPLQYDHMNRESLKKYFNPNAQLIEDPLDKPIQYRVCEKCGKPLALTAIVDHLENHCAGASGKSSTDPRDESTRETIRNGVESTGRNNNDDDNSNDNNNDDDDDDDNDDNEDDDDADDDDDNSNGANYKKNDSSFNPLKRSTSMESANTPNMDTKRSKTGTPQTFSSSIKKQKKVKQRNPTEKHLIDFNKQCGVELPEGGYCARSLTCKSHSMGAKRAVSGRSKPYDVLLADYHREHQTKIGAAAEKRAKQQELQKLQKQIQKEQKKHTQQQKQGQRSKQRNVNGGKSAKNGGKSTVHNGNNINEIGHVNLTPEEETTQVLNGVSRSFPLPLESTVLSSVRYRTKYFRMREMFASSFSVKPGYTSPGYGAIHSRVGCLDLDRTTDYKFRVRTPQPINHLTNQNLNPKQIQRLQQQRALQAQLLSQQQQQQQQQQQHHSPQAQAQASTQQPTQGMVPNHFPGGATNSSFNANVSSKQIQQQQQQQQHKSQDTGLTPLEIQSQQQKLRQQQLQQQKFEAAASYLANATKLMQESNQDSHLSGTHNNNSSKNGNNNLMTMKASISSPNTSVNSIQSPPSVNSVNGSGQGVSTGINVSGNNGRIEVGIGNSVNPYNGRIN
Assay: pull-down; GST-tagged Yra1p or its subfragments as bait (1 µg) on beads, 200 ng target protein; 50 mM HEPES-KOH pH 7.5, 150 mM NaCl, 10% glycerol, 0.1% NP40, 0.5 mM DTT, 1 mM EDTA; 4 °C, 2 h; Western blotting
Conditions: both partners purified

binding result: binds
B1: GST-tagged Yra1p (natural protein, S. cerevisiae, UniProt Q12159 1-226, looked up)
chain: MSANLDKSLDEIIGSNKAGSNRARVGGTRGNGPRRVGKQVGSQRRSLPNRRGPIRKNTRAPPNAVARVAKLLDTTREVKVNVEGLPRDIKQDAVREFFASQVGGVQRVLLSYNERGQSTGMANITFKNGELARRAVERFNGSPIDGGRSRLRLNLIVDPNQRPVKSLADRIKAMPQKGGNAPRPVKRGPNRKAAMAKSQNKPKREKPAKKSLEDLDKEMADYFEKK
notes: Yra1p, essential mRNA export factor, S. cerevisiae; also called GST-Yra1p
